Assays:
[1] = test system: Fusarium culmorum; assay type: in vivo; details: wheat, foliar application 3 dps, F. culmorum added 4 dps
[2] = Chitinase mixture design, conversion rate of chitin powder (reducing end assay); assay type: biochemical; details: 2 μM Factor A
Protocol: All five chitinases implemented in the DoE originated from a novel marine Photobacterium strain expressing these enzymes to carry out a conversion of crystalline chitin to monomeric and dimeric polysaccharides. All chitinases were produced recombinantly using E. coli BL21 (DE3) and characterized regarding optimum reaction conditions and product properties in Example 2. As so far only singular enzyme reactions were carried out, the DoE approach was used to 1) determine ideal enzyme combinations to maximize product rates 2) identify possible enzyme combinations to alter product distribution in terms of DP. […] The amount of released reducing sugars from the enzymatic degradation was quantified by the reducing end assay and used as a primary response.
The optimization function in Design Expert was used to model enzyme mixtures to maximize the overall conversion rate of chitin to oligomeric chitin mixtures. Three mixture solutions for maximized chitin (S1-83 Max) oligomer rates were tested and quantitative data was compared to the values predicted by the model. […]
Enzymatic activity of recombinant chitinases was determined by carrying out a reducing end assay [J., H., Svein, E., and H., V. G., Carbohydr Polym, 2004. […] Samples were cooled down to room temperature and absorption was determined at 620 nm. […]

[3] = test system: D. melanogaster eggs; test: Larvae survival after treatment of D. melanogaster eggs; assay type: in vivo; details: chitinase concentrations from 10% to 0.1%
Protocol: The effects of chitinases on insects was tested on D. melanogaster eggs. Briefly, eggs were treated with chitinase 1 or a control, and larvae survival was assessed 3 days after treatment (DAT). Results for chitinase concentrations of concentration from 10% to 0.1% were as follows: […]

[4] = test system: corn (maize), rice, barley; test: Protection of plants against abiotic stress (drought, flooding, salt, frost); assay type: in vivo, pear, cherry; details: foliar and/or seed application
Text: FIGS. 18A-18E. Use of chitinase 1 as plant protection agent against abiotic stresses. Plant length (PL) FIG. 18A: after foliar application on corn in presence of drought or flooding stress; FIG. 18B: after foliar, seed or foliar+seed application on corn in presence of drought stress; FIG. 18C: after foliar application on rice in presence of salt stress; FIG. 18D: after foliar application on corn in presence of salt stress; FIG. 18E: after seed application on barley in presence of drought stress.
FIGS. 19A-19B. Use of chitinase 1 as plant protection agent against abiotic stresses. Yield FIG. 19A: of pears after foliar application in presence of frost stress; FIG. 19B: of cherries after foliar application in presence of frost stress.
Chitinase 1 was tested for protective effects against abiotic stress. Abiotic stresses tested were drought, flooding, salt, or frost stress. Plants tested were: corn (maize), rice, barley, pear and […]. Test conditions were as follows:
• plants are drilled in trays • germination at 25° C./15° C. (day/night) light 16 h, dark 8 h • application 10 days later • 2 days later replanted in pots of 8×8 cm • 3 possible regimes • no water • every day water with flooding system • continuous water
• plants are drilled in trays • germination at 25° C./15° C. […]

[5] = test system: Fusarium culmorum; test: Minimum inhibitory concentration (MIC) test on fungal pathogens; assay type: cell-based
Protocol: The start concentration of each chitinase used in minimum inhibitory concentration (MIC) tests was 100 μg/ml.
The chitinases were further tested for their protective activity in germination tests. Briefly, the following steps were conducted: • 1. Disinfection of wheat seeds in 10% bleach for 10 minutes in a biosafety cabinet • 2. Germination on filter paper • 3. Foliar application 3 dps (days post seeding) and 1 dbi (day before infection) • 4. 4 dps: add pathogen Fusarium culmorum • 5. Monitoring germination and plant health/phytotox

[6] = Substrate conversion yield from residue substrate after the reaction; assay type: biochemical; details: residue substrate after the reaction relative to the starting material
Protocol: The overall substrate conversion yield was determined for all maximized solutions after determining the residue substrate after the reaction, relative to the starting material.

B1: Chitinase 1: chitinolytic enzyme from P. orarium, SEQ ID NO: 1, recombinant with PelB signal peptide and 6×His tag; run 19 = 2 μM alone (protein, listed as Photobacterium orarium)
chain: MAAPGTPQIAWMETDYAIVEVDQAASAYKSLITVKPAAEVPVAWQRYSGETADLWKVKLNGNVVFEQSIAPASSGAGSTTLSVAQGGQYAMTVELCSGTGAAQACTSSAATNIVVADTDGSHLDPLPMNVDANNGNYTTPANTVVGAYFVEWGVYGRKFSVDNIPAQNLTHILYGFIPICGPNESLGEIENGNSLAALNRACQGTPDYEVVIHDPWAAVQMPQPQSGHTHSTPYKGTYGQMMALKQRYPDLKIVPSVGGWTLSDPFYSFTDKAKRDIFVASVKKFLKTWKFFDGVDIDWEFPGGKGANANLGDPVNDGPAYVALMRELRVMLDELEAETGRQYELTSAIGVGYDKIDVVNYADAVQYMDYIFAMTYDFFGGWNNVPGHQTALFCGSHMSADVCNGTGVDENGVPRQGPAYTAAHGIDRLLAQGVPANKLVLGTAMYARGWTGVTEASMTDPTNPMTGTGNGMVPGSWEPGVIDYKDVVTDYINNAAVTKGYDAQAEAPWAYNPSNGNLITYDDRRSVLAKGQYVRNLGLAGLFAWEIDADNGDILNAMQDSLAGGGGNYAPVAKAGADQVVNGAASVTLDGSASSDRDGQIVSYQWTQTSGPALTLTGSDTATATVAVPEVTADTQYAFTLTVTDNAGDTATDSVTVTAKAPGSNTAPVVAVSGPATASAGDTVVLDASQSSDADGDTLTFTWTVPAGVNATVNGATVSFVADSYTVDTPLNFTVAVSDGTDSVTESVTVTVLKDGGSTGCTNAWATGGVYNSGDIVTHSGKSWKAKWWTTGEEPGTTGEWGVWEDLGAANCQIE
modifications: PelB signal peptide; 6xHis tag; Chitinase 1
notes: run 19 = 2 μM alone
For B1, the “fungal growth in germination test” value [1] was “strong inhibition of fungal growth”, the “plant health in germination test” value ([1]; compared to the control) was “improved plant health” and the “conversion rate (highest of the design runs)” value [2] was 502 nmol/mL/h. For the same molecule, the “% mortality” value ([3]; 3 days after treatment, control 25) was 36%, the “% survival” value ([3]; larvae survival 3 days after treatment, control 75) was 64% and the “protection from abiotic stress (plant length, fruit yield)” value [4] was “protects the plants from different abiotic stresses”. For the same molecule, the “inhibition of Fusarium culmorum in the MIC assay” value [5] was “showed inhibition” and the substrate conversion yield [6] was 18.3±0.5%.

— patent publication US20240287489A1, “CHITINOLYTIC ENZYME-BASED PLANT PROTECTION AGENTS” (GLOBACHEM NV, priority 2021, published 2024)
